The results in this text go back to US20170189507A1.

This assay has as its target HLA-A*24 (human). Description: UV-ligand exchange ELISA. For orientation: ELISA stands for enzyme-linked immunosorbent assay.

In turn, WYVNGVNYF [peptide SEQ ID No 189] yielded a peptide exchange yield of 20 to 49%.

LYLKLWNLI [peptide SEQ ID No 214] had a peptide exchange yield of 50 to 75%.

The molecule IYKVGAPTI [peptide SEQ ID No 185] yielded a peptide exchange yield of 50 to 75%.

In the case of VHIPEVYLI [peptide SEQ ID No 205], the peptide exchange yield was 50 to 75%.

In the case of VFTSTARAF [peptide SEQ ID No 183], the peptide exchange yield fell in the range of 50 to 75%.

As to TYLRDQHFL [peptide SEQ ID No 187], the peptide exchange yield is more than 75%.

IYQLDTASI [peptide SEQ ID No 182] had a peptide exchange yield of 50 to 75%.

In turn, EFGSLHLEFL [peptide SEQ ID No 194] displayed a peptide exchange yield of less than 20%.

As to VFQNFPLLF [peptide SEQ ID No 184], the peptide exchange yield is more than 75%.

IYTMIYRNL [peptide SEQ ID No 210] returned a peptide exchange yield of more than 75%.

RFHPTPLLL [peptide SEQ ID No 193]: the peptide exchange yield was more than 75%.

The molecule RYFKGLVF [peptide SEQ ID No 188] showed a peptide exchange yield of 50 to 75%.

In turn, IYDDSFIRPVTF [peptide SEQ ID No 180] displayed a peptide exchange yield of 50 to 75%.

VYPWLGALL [peptide SEQ ID No 177] showed a peptide exchange yield of more than 75%.

As to TYTTVPRVAF [peptide SEQ ID No 172], the peptide exchange yield was more than 75%.

Consider LYLDIINLF [peptide SEQ ID No 181], for which the peptide exchange yield was more than 75%.

The molecule IFIEVFSHF [peptide SEQ ID No 178] registered a peptide exchange yield of 50 to 75%.

In turn, EYQENFLSF [peptide SEQ ID No 206] showed a peptide exchange yield of 50 to 75%.

LYLDKATLI [peptide SEQ ID No 198] gave a peptide exchange yield of 50 to 75%.

On to VFKASKITF [peptide SEQ ID No 191], for which the peptide exchange yield lay in the range of 50 to 75%.

Take TYTQDFNKF [peptide SEQ ID No 208]: the peptide exchange yield lay within 50 to 75%.

For the molecule IFPQFLYQF [peptide SEQ ID No 186], the peptide exchange yield is more than 75%.

Take GFFIFNERF [peptide SEQ ID No 190]: the peptide exchange yield is 50 to 75%.

With MYDSYWRQF [peptide SEQ ID No 179], the peptide exchange yield is more than 75%.

Molecule FYSRLLQKF [peptide SEQ ID No 203] came in with a peptide exchange yield of 50 to 75%.

With SYALLTYMI [peptide SEQ ID No 192], the peptide exchange yield was more than 75%.

The molecule YYLEVGKTLI [peptide SEQ ID No 211] showed a peptide exchange yield of more than 75%.
